This note sets out measurements from article PMC8971491, “Conformational plasticity of the HIV-1 gp41 immunodominant region is recognized by multiple non-neutralizing antibodies” (Communications Biology, 2022).

In this assay the target is T1, 15-mer peptide corresponding to residues 594-608 of HIV-1 gp160 (HIV-1 Consensus Subtype C Env Peptide Set) (HIV-1 consensus subtype C (stand-in: …, UniProt P04578, strain)).
T1 construct: 15-mer of the HIV-1 consensus subtype C Env peptide set, corresponding to residues 594-608 of HIV-1 gp160; also called single peptide that corresponds to residues 594-608 of HIV-1 gp160; NIH HIV-1 gp41 peptide; source: bought: NIH AIDS Reagent Program, HIV-1 Consensus Subtype C Env Peptide Set (cat. No. 9499)
T1 chain: GIWGCSGKLICTTAV
The experiment in a line: ELISA; 15-mer peptides adsorbed to microtiter plates at 10 ug/mL in 100 mM sodium bicarbonate pH 9.3 overnight at 4 C; Fab at 1 ug/mL in PBST-Milk, 1 hour at room temperature; goat anti-human HRP, absorbance at 450 nm. Particulars: both partners purified. Background: An ELISA detects its analyte on a solid surface through an enzyme-linked reagent.

B1: Fab 3D6 (Fab, V domains shown)
VH: EVQLVESGGGLVQPGRSLRLSCAASGFTFNDYAMHWVRQAPGKGLEWVSGISWDSSSIGYADSVKGRFTISRDNAKNSLYLQMNSLRAEDMALYYCVKGRDYYDSGGYFTVAFDIWGQGTMVTVSS
VL: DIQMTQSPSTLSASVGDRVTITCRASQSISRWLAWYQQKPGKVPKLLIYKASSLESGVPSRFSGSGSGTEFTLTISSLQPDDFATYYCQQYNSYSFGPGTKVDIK
notes: immunoglobulin heavy chain variable region of 3D6; Ig gamma-1 chain constant region, fused after the variable region; as a Fab only part of the constant region is present; immunoglobulin light chain variable region of 3D6; Ig kappa chain constant region, fused after the variable region; Fab; residues numbered by Kabat convention; also called patient-derived near-germline antibody fragment; …
As to B1, the binding result was “binds”.

B2: Fab F240 (Fab, V domains shown)
VH: QVQLVQSGGGVVKPGASLRLACSASGFTFTDYYMSWIRQTPGKGLQWLAYITKDGSEKKYADSLQGRFAVSRDNANNLVFLQLNTVEDDDTGVYYCARDDGYYDRSGYYGVFDLWGQGIRVTVSS
VL: EFLLTQSPDSLAVTLGETATITCRSSRNILHSLNNKNYLAWYQQRPGQAPKLLVIWASMRVSGVADRFSGSGSGTDFALTISSLQPEDAAVYYCQHYYTTHRTFGQGTRVEIR
notes: immunoglobulin heavy chain variable region of F240; Ig gamma-1 chain constant region, fused after the variable region; as a Fab only part of the constant region is present; immunoglobulin light chain variable region of F240; Ig kappa chain constant region, fused after the variable region; Fab; residues numbered by Kabat convention; also called anti-gp41 Fab F240; source: HEK293T, transiently …
As for B2, the binding result is given as “binds”.
